Laboratory results: US20040018971A1 (published 2004)

Columns and labels:
HLA-A*0301 [1] = biological target: T1, HLA-A*0301 (human); assay: competitive inhibition of 125I-labelled standard peptide binding to purified HLA-A*0301, gel filtration; standard 941.12 [..] (11 nM)
T1 construct: also called HLA-A3

HLA-A*0301 [2] = biological target: T2, HLA-A*0301 (human); assay: inhibition of 125I-labelled probe peptide binding to purified HLA-A*0301, gel filtration; ratio to standard peptide 941.12 [..] (11 nM)
T2 construct: also called HLA-A3

[3] = biological target: T3, HLA-A*0101 (purified HLA class I molecule) (human); assay: competition with 125I-labelled standard peptide on purified HLA-A*0101, gel filtration
T3 construct: also called HLA-A1

HLA-B*0702 = HLA-B*0702 (human); assay: competition vs 125I-labelled probe peptide, purified HLA, gel filtration
HLA-B*3501 = HLA-B*3501 (human); assay: as above
HLA-B*5101 = HLA-B*5101 (human); assay: as above
HLA-B*5301 = HLA-B*5301 (human); assay: as above
HLA-B*5401 = HLA-B*5401 (human); assay: as above
HLA-A*0201 = biological target: T4, HLA-A*0201 (human); assay: inhibition of 125I-labelled probe peptide binding to purified HLA, gel filtration
T4 construct: also called HLA-A2.1

B1: HER2/neu peptide, position 42, 9 amino acids (peptide)
peptide: HLDMLRHLY
notes: Synthetic peptide; also called Her2/neu.42
For B1, the “relative binding ratio (IC50 of standard peptide / IC50 of test peptide)” value (HLA-A*0301 [1]) was 0.037 ratio.

In the case of HSCVDLDDK (Synthetic peptide) [HER2/neu peptide, position 632, 9 amino acids], the “relative binding ratio (IC50 of standard peptide / IC50 of test peptide)” value (HLA-A*0301 [1]) is reported as -0.0002 ratio.

B2: HER2/neu peptide, position 478, 10 amino acids (peptide)
peptide: HTVPWDQLFR
notes: Synthetic peptide; also called Her2/neu.478
With B2 the “relative binding ratio (IC50 of standard peptide / IC50 of test peptide)” value (HLA-A*0301 [1]) was 0.0035 ratio.

ILIKRRQQK (T0001 prints T at residue 673 (FGTLIK)) [HER2/neu peptide, position 673, 9 amino acids] was tested, and the “relative binding ratio (IC50 of standard peptide / IC50 of test peptide)” value (HLA-A*0301 [1]) was 0.38 ratio.

ILKETELRK (Synthetic peptide) [HER2/neu peptide, position 714, 9 amino acids] was tested, and the “relative binding ratio (IC50 of standard peptide / IC50 of test peptide)” value (HLA-A*0301 [1]) was 0.019 ratio.

B3: HER2/neu peptide, position 167, 9 amino acids (peptide)
peptide: ILWKDIFHK
notes: Synthetic peptide; also called Her2/neu.167
With B3 the “relative binding ratio (IC50 of standard peptide / IC50 of test peptide)” value (HLA-A*0301 [1]) was 0.28 ratio.

With KIPVAIKVLR (Synthetic peptide) [HER2/neu peptide, position 747, 10 amino acids] the “relative binding ratio (IC50 of standard peptide / IC50 of test peptide)” value (HLA-A*0301 [1]) was 0.0009 ratio.

With KIRKYTMR (Synthetic peptide) [HER2/neu peptide, position 681, 8 amino acids] the “relative binding ratio (IC50 of standard peptide / IC50 of test peptide)” value (HLA-A*0301 [1]) was 0.001 ratio.

KVLRENTSPK (Synthetic peptide) [HER2/neu peptide, position 753, 10 amino acids] was tested, and the “relative binding ratio (IC50 of standard peptide / IC50 of test peptide)” value (HLA-A*0301 [1]) was 0.38 ratio.

With LACHQLCAR (Synthetic peptide) [HER2/neu peptide, position 509, 9 amino acids] the “relative binding ratio (IC50 of standard peptide / IC50 of test peptide)” value (HLA-A*0301 [1]) was -0.0002 ratio.

For LALTLIDTNR (Synthetic peptide) [HER2/neu peptide, position 179, 10 amino acids], the “relative binding ratio (IC50 of standard peptide / IC50 of test peptide)” value (HLA-A*0301 [1]) was -0.0002 ratio.

LCYQDTILWK (Synthetic peptide) [HER2/neu peptide, position 161, 10 amino acids] was tested, and the “relative binding ratio (IC50 of standard peptide / IC50 of test peptide)” value (HLA-A*0301 [1]) was 0.0081 ratio.

B4: HER2/neu peptide, position 726, 10 amino acids (peptide)
peptide: LGSGAFGTVY
notes: Synthetic peptide; also called Her2/neu.726 (10-mer)
For B4, the “relative binding ratio (IC50 of standard peptide / IC50 of test peptide)” value (HLA-A*0301 [2]) was 0.0003.

B5: HER2/neu peptide, position 674, 10 amino acids (peptide)
peptide: LIKRRQQKIR
notes: Synthetic peptide; also called Her2/neu.674 (10-mer)
B5 was tested, and the “relative binding ratio (IC50 of standard peptide / IC50 of test peptide)” value (HLA-A*0301 [2]) was 0.0002.

B6: HER2/neu peptide, position 154, 10 amino acids (peptide)
peptide: LIQRNPQLCY
notes: Synthetic peptide; also called Her2/neu.154 (10-mer)
With B6 the “relative binding ratio (IC50 of standard peptide / IC50 of test peptide)” value (HLA-A*0301 [2]) was 0.0012.

With LLNWCMQIAK (Synthetic peptide) [HER2/neu peptide, position 822, 10 amino acids] the “relative binding ratio (IC50 of standard peptide / IC50 of test peptide)” value (HLA-A*0301 [2]) was 0.14.

B7: HER2/neu peptide, position 915, 9 amino acids (peptide)
peptide: LMTFGAKPY
notes: Synthetic peptide; also called Her2/neu.915 (9-mer)
For B7, the “relative binding ratio (IC50 of standard peptide / IC50 of test peptide)” value (HLA-A*0301 [2]) was 0.0002.

B8: HER2/neu peptide, position 181, 10 amino acids (peptide)
peptide: LTLIDTNRSR
notes: Synthetic peptide; also called Her2/neu.181 (10-mer)
B8 was tested, and the “relative binding ratio (IC50 of standard peptide / IC50 of test peptide)” value (HLA-A*0301 [2]) was 0.0002.

B9: HER2/neu peptide, position 841, 9 amino acids (peptide)
peptide: LVHRDLAAR
notes: Synthetic peptide; also called Her2/neu.841 (9-mer)
B9 was tested, and the “relative binding ratio (IC50 of standard peptide / IC50 of test peptide)” value (HLA-A*0301 [2]) was 0.004.

With MALESILRRR (Synthetic peptide) [HER2/neu peptide, position 889, 10 amino acids] the “relative binding ratio (IC50 of standard peptide / IC50 of test peptide)” value (HLA-A*0301 [2]) was 0.0011.

B10: HER2/neu peptide, position 1014, 10 amino acids (peptide)
peptide: MGDLVDAEEY
notes: Synthetic peptide; also called Her2/neu.1014 (10-mer)
With B10 the “relative binding ratio (IC50 of standard peptide / IC50 of test peptide)” value (HLA-A*0301 [2]) was 0.0002.

B11: HER2/neu peptide, position 960, 9 amino acids (peptide)
peptide: MIDSECRPR
notes: Synthetic peptide; also called Her2/neu.960 (9-mer)
B11 was tested, and the “relative binding ratio (IC50 of standard peptide / IC50 of test peptide)” value (HLA-A*0301 [2]) was 0.0017.

B12: HER2/neu peptide, position 360, 9 amino acids (peptide)
peptide: NIQEFAGCK
notes: Synthetic peptide; also called Her2/neu.360 (9-mer)
B12 was tested, and the “relative binding ratio (IC50 of standard peptide / IC50 of test peptide)” value (HLA-A*0301 [2]) was 0.0002.

B13: HER2/neu peptide, position 360, 10 amino acids (peptide)
peptide: NIQEFAGCKK
notes: Synthetic peptide; also called Her2/neu.360 (10-mer)
With B13 the “relative binding ratio (IC50 of standard peptide / IC50 of test peptide)” value (HLA-A*0301 [2]) was 0.0003.

B14: HER2/neu peptide, position 745, 9 amino acids (peptide)
peptide: NVKIPVAIK
notes: Synthetic peptide; also called Her2/neu.745 (9-mer)
In the case of B14, the “relative binding ratio (IC50 of standard peptide / IC50 of test peptide)” value (HLA-A*0301 [2]) is reported as 0.0058.

RLLDIDETEY [HER2/neu peptide, position 868, 10 amino acids] was tested, and the “relative binding ratio (IC50 of standard peptide / IC50 of test peptide)” value [3] was 1.3 ratio.

ELMTFGAKPY [HER2/neu peptide, position 914, 10 amino acids] was tested, and the “relative binding ratio (IC50 of standard peptide / IC50 of test peptide)” value [3] was 0.0082 ratio.

With PLTCSPQPEY [HER2/neu peptide, position 1130, 10 amino acids] the “relative binding ratio (IC50 of standard peptide / IC50 of test peptide)” value [3] was 0.0072 ratio.

In the case of VVQGNLELTY [HER2/neu peptide, position 55, 10 amino acids], the “relative binding ratio (IC50 of standard peptide / IC50 of test peptide)” value [3] is reported as 0.018 ratio.

With RVLQGLPREY [HER2/neu peptide, position 545, 10 amino acids] the “relative binding ratio (IC50 of standard peptide / IC50 of test peptide)” value [3] was 0.0015 ratio.

In the case of FPSETDGYV [Her2/neu.1120.F1], the IC50 (HLA-B*0702) is reported as 204 nM, the IC50 (HLA-B*3501) is reported as 809 nM and the IC50 (HLA-B*5101) is reported as 32 nM. It also gave an IC50 (HLA-B*5301) of 517 nM and an IC50 (HLA-B*5401) of 26 nM.

B15: Her2/neu.1151.F1I10 (peptide)
peptide: FPREGPLPAI
notes: 10-mer analog of the HER2/neu peptide starting at position 1151
With B15 the IC50 (HLA-B*0702) was 20 nM, the IC50 (HLA-B*3501) was 7200 nM and the IC50 (HLA-B*5101) was 20 nM. The IC50 (HLA-B*5301) was 620 nM and the IC50 (HLA-B*5401) was 3.4 nM.

B16: Her2/neu.1155.F1I9 (peptide)
peptide: FPLPAARPI
notes: 9-mer analog of the HER2/neu peptide starting at position 1155
Work on B16 yielded an IC50 (HLA-B*0702) of 6.5 nM, an IC50 (HLA-B*3501) of 600 nM and an IC50 (HLA-B*5101) of 7.1 nM. For the same binder, the IC50 (HLA-B*5301) was 282 nM and the IC50 (HLA-B*5401) was 3.8 nM.

B17: Her2/neu.1157.F1I11 (peptide)
peptide: FPAARPAGATI
notes: 11-mer analog of the HER2/neu peptide starting at position 1157
In the case of B17, the IC50 (HLA-B*0702) is reported as 39 nM, the IC50 (HLA-B*3501) is reported as 4240 nM and the IC50 (HLA-B*5101) is reported as 13 nM. For the same binder, the IC50 (HLA-B*5301) was 332 nM and the IC50 (HLA-B*5401) was 50 nM.

B18: HER2/neu peptide, position 402, 9 amino acids (peptide)
peptide: TLEEITGYL
notes: Synthetic peptide; also called HER2/neu 402-410
With B18 the relative binding ratio (HLA-A*0201) was 0.0018 ratio (IC50 of standard peptide / IC50 of test peptide).

B19: HER2/neu peptide, position 1172, 10 amino acids (peptide)
peptide: TLSPGKNGVV
notes: Synthetic peptide; also called HER2/neu 1172-1181
With B19 the relative binding ratio (HLA-A*0201) was 0.0001 ratio (IC50 of standard peptide / IC50 of test peptide).

B20: HER2/neu peptide, position 725, 10 amino acids (peptide)
peptide: VLGSGAFGTV
notes: Synthetic peptide; also called HER2/neu 725-734
For B20, the relative binding ratio (HLA-A*0201) was 0.0007 ratio (IC50 of standard peptide / IC50 of test peptide).

B21: HER2/neu peptide, position 666, 9 amino acids (peptide)
peptide: VLGVVFGIL
notes: Synthetic peptide; also called HER2/neu 666-674
With B21 the relative binding ratio (HLA-A*0201) was 0.0005 ratio (IC50 of standard peptide / IC50 of test peptide).

For VLQGLPREYV (Synthetic peptide) [HER2/neu peptide, position 546, 10 amino acids], the relative binding ratio (HLA-A*0201) was 0.0009 ratio (IC50 of standard peptide / IC50 of test peptide).

VVGILLVVV (Synthetic peptide) [HER2/neu peptide, position 658, 9 amino acids] was tested, and the relative binding ratio (HLA-A*0201) was 0.0005 ratio (IC50 of standard peptide / IC50 of test peptide).

With VVGILLVVVL (Synthetic peptide) [HER2/neu peptide, position 658, 10 amino acids] the relative binding ratio (HLA-A*0201) was 0.0009 ratio (IC50 of standard peptide / IC50 of test peptide).

B22: HER2/neu peptide, position 665, 10 amino acids (peptide)
peptide: VVLGVVFGIL
notes: Synthetic peptide; also called HER2/neu 665-674
In the case of B22, the relative binding ratio (HLA-A*0201) is reported as 0.0027 ratio (IC50 of standard peptide / IC50 of test peptide).

VVVLGVVFGI (Synthetic peptide) [HER2/neu peptide, position 664, 10 amino acids] was tested, and the relative binding ratio (HLA-A*0201) was 0.0032 ratio (IC50 of standard peptide / IC50 of test peptide).

B23: HER2/neu peptide, position 452, 10 amino acids (peptide)
peptide: WLGLRSLREL
notes: Synthetic peptide; also called HER2/neu 452-461
For B23, the relative binding ratio (HLA-A*0201) was 0.0001 ratio (IC50 of standard peptide / IC50 of test peptide).

In the case of YISAWPDSL (Synthetic peptide) [HER2/neu peptide, position 411, 9 amino acids], the relative binding ratio (HLA-A*0201) is reported as 0.0003 ratio (IC50 of standard peptide / IC50 of test peptide).

In the case of YLSTDVGSCT (Synthetic peptide) [HER2/neu peptide, position 303, 10 amino acids], the relative binding ratio (HLA-A*0201) is reported as 0.0002 ratio (IC50 of standard peptide / IC50 of test peptide).

B24: HER2/neu peptide, position 1196, 9 amino acids (peptide)
peptide: YLTPQGGAA
notes: Synthetic peptide; also called HER2/neu 1196-1204
In the case of B24, the relative binding ratio (HLA-A*0201) is reported as 0.0001 ratio (IC50 of standard peptide / IC50 of test peptide).
